Source: patent US20220056149A1 (LUMOSA THERAPEUTICS, published 2022)

Key:
[1] = target: T1, human CEACAM5-Fc (novoprotein) (human, UniProt P06731 35-685, limits assumed); assay: antigen binding activity, summary table; assay not named on the sheet
T1 construct: Bought; not shown: Fc part of a bought fusion protein
T1 sequence (looked up): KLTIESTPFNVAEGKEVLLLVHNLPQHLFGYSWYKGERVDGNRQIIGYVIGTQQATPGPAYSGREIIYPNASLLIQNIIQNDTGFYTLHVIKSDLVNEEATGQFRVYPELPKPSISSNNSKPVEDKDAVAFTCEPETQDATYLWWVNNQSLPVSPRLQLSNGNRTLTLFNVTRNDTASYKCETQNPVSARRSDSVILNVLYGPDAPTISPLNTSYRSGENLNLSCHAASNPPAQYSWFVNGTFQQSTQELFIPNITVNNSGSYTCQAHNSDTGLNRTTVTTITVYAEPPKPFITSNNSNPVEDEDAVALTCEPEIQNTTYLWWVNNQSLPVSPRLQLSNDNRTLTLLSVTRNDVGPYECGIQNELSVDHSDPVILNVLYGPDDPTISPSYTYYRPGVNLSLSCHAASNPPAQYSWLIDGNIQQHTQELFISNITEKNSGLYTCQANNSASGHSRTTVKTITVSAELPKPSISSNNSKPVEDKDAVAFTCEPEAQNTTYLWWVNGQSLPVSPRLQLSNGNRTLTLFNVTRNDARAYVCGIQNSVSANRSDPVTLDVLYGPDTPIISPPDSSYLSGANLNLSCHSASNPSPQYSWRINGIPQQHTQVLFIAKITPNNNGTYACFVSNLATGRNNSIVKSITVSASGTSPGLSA

[2] = target: T2, human ErbB2/Her2-Fc (Acro biosystem) (human, UniProt P04626 23-652); assay: ELISA, plate coated with human ErbB2/Her2-Fc
T2 construct: Bought; also called human HER2; not shown: Fc part of a bought fusion protein

[3] = target: T3, Human VEGFR2-Fc (Sino Biological) (human, UniProt P35968 20-764); assay: antigen binding activity, summary table; assay not named on the sheet
T3 construct: Bought; not shown: Fc part of a bought fusion protein
T3 sequence (P35968 20-764 limits assumed): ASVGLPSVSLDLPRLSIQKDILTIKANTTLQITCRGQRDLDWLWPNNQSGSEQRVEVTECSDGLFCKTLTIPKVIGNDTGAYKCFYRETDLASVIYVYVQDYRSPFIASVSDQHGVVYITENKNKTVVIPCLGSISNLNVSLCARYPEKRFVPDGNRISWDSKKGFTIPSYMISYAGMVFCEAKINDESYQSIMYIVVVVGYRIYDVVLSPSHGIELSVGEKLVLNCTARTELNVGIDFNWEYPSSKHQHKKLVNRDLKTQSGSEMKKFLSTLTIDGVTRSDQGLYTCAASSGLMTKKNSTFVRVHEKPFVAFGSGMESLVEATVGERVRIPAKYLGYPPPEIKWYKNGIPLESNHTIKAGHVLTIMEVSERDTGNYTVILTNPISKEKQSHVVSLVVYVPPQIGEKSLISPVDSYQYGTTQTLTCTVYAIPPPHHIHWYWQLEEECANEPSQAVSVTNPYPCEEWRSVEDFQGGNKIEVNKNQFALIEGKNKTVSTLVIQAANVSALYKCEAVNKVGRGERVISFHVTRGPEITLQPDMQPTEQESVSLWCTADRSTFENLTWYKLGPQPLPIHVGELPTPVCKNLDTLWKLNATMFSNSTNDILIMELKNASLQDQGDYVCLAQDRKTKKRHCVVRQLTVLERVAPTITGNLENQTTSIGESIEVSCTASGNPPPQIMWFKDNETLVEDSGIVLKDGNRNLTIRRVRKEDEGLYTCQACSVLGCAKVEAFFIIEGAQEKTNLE

[4] = target: T4, hEGFR-Fc (Sino Biological) (human, UniProt P00533 25-645); assay: as above
T4 construct: Bought; also called human EGFR; humans EGFR-Fc protein; not shown: Fc part of a bought fusion protein

[5] = target: T3, Human VEGFR2-Fc (Sino Biological); assay: ELISA, plate coated with human VEGFR2-Fc 1ug/ml, anti-His-HRP detection
[6] = target: T4, hEGFR-Fc (Sino Biological); assay: ELISA, plate coated with human EGFR-Fc, anti-His-HRP detection
[7] = target: T5, human ErbB3/Her3-Fc (Acro biosystem) (human, UniProt P21860 20-643); assay: ELISA, plate coated with human ErbB3/Her3-Fc
T5 construct: Bought; also called human HER3; not shown: Fc part of a bought fusion protein

B1: NbCEA5-CDoem3-H (VHH)
VHH: QVQLVESGGGSVQAGGSLRLSCAASGDTYGSYWMGWFRQAPGKEREGVAAINRGGGYTVYADSVKGRFTISRDTAKNTVYLQMNSLRPDDTADYYCAASGVLGGLHEDWFNYWGQGTQVTVSS
notes: sdAb-cytosine deaminase fusion with C-terminal His-tag; Built from parts
- binding result [1]: binds

B2: 2D3-CDoem3-H (VHH)
VHH: EVQLVESGGSLVQPGGSLRLSCAASGFTFDDYAMSWVRQVPGKGLEWVSSINWSGTHTDYADSVKGRFTISRNNANNTLYLQMNSLKSEDTAVYYCAKNWRDAGTTWFEKSGSAGQGTQVTVSS
notes: as for B1
- EC50 (read off the curve) [2]: ~0.1 nM

B3: 3VGR17-CD-H (VHH)
VHH: QVQLQESGGGSVQAGGSLRLSCAASGYTYCSYDMGWYRQAPGKEREFVSAIDNYGRTGYADSVKGRFTISQDNAKNTSYLQMNSLKPEDTAIYYCKVDVCPDPSRPGRPGYWGQGTQVTVSS
- binding result [3]: binds

B4: Inherbin3-CD-H (other)
antigen binding fragment-CD fusion: MLVYNKLTFQLEPNPHTKGGGGSGGGGSGGGGSVTGGMASKWDQKGMDIAYEEAALGYKEGGVPIGGCLINNKDGSVLGRGHNMRFQKGSATLHGEISTLENCGRLEGKVYKDTTLYTTLSPCDMCTGAIIMYGIPRCVVGENVNFKSKGEKYLQTRGHEVVVVDDERCKKIMKQFIDERPQDWFEDIGEGSSHHHHHH
- binding result [4]: binds

B5: Inherbin1-CD-H (other)
antigen binding fragment-CD fusion: MMLYNPTTYQMDVNPEGKGGGGSGGGGSGGGGSVTGGMASKWDQKGMDIAYEEAALGYKEGGVPIGGCLINNKDGSVLGRGHNMRFQKGSATLHGEISTLENCGRLEGKVYKDTTLYTTLSPCDMCTGAIIMYGIPRCVVGENVNFKSKGEKYLQTRGHEVVVVDDERCKKIMKQFIDERPQDWFEDIGEGSSHHHHHH
- binding result [4]: no binding

B6: 3VGR19-CD-H (VHH)
VHH: QVQLQESGGGSVQAGGSLRLSCVASGYSVSKNSMGWFRQAPGKEREGVAGINEGGTATYYANSVKGRFTISQDNAKNTVYLQMNTLKPEDTAIYYCAAGSPDPPPLIESVVKYWGQGTQVTVSS
notes: sdAb-cytosine deaminase fusion with C-terminal His-tag, made in E. coli; Built from parts; An N-terminal Met may precede the sdAb
- binding result [3]: binds

B7: 3VGR10-CD-H (VHH)
VHH: QVQLQESGGGSVQAGGSLRLSCVASGYSVSKNSMGWFRQAPGKEREGVAGINEGGTATYYANSVKGRFTISQDNARNTVYLQMNTLKPEDTAIYYCAAGSPDPPPLIESVVKYWGQGTQVTVSS
- binding result [3]: binds

B8: 4VGR17-CD-H (VHH)
VHH: QVQLQESGGGSVQAGGSLRLSCVASGYSVSKNSMGWFRQAPGKEREGVAGINYGGTATYYANSVKGRFTISQDNAKNTVYLQMNTLKPEDTAIYYCAAGSPDPPPLIEGVVKYWGQGTQVTVSS
notes: as for B1
- EC50 (read off the curve) [5]: ~0.02 µg/mL

B9: 47D5-CDoem3-H (VHH)
VHH: KVQLVESGGGLVQPGGSLRLSCAASGSIFGFNDMAWYRQAPGKQRELVALISRVGVTSSADSVKGRFTISRVNAKDTVYLQMNSLKPEDTAVYYCYMDQRLDGSTLAYWGQGTQVTVSS
notes: as for B1
- EC50 (read off the curve) [2]: ~0.2 nM

B10: VHH122-CD-H (VHH)
VHH: EVQLQESGGGLVQAGDSLRLSCLVSGRSFNSYTMGWFRQAPGKEREFVAAILWSGPTTYYADSVKGRFTISRDNAKNTVYLQMNSLKPEDTAVYYCAAALGVLVLAPGNVYSYWGQGTQVTVSS
notes: as for B1
- EC50 (read off the curve) [6]: ~0.8 nM

B11: DOM-16-39-CD-H (VHH)
sdAb-CD fusion: MDIQMTQSPTSLSASVGDRVTITCRASQWIGNLLDWYQQKPGEAPKLLIYYASFLQSGVPSRFSGGGFGTDFTLTISSLQPEDFATYYCQQANPAPLTFGQGTKVEIKRGGGGSGGGGSGGGGSVTGGMASKWDQKGMDIAYEEAALGYKEGGVPIGGCLINNKDGSVLGRGHNMRFQKGSATLHGEISTLENCGRLEGKVYKDTTLYTTLSPCDMCTGAIIMYGIPRCVVGENVNFKSKGEKYLQTRGHEVVVVDDERCKKIMKQFIDERPQDWFEDIGEGSSHHHHHH
- binding result [4]: binds

B12: BCD090-M2-CDoem3-H (VHH)
VHH: QVQLVQSGGGLVQAGGSLRLSCAFSGRTFSMYTMGWFRQAPGKEREFVAANRGRGLSPDIADSVNGRFTISRDNAKNTLYLQMDSLKPEDTAVYYCAADLQYGSSWPQRSSAEYDYWGQGTTVTVSS
- EC50 (read off the curve) [7]: ~0.5 nM

B13: GE10-CD-H (other)
antigen binding fragment-CD fusion: MLHLWVPEPWTQTGGGGSGGGGSGGGGSVTGGMASKWDQKGMDIAYEEAALGYKEGGVPIGGCLINNKDGSVLGRGHNMRFQKGSATLHGEISTLENCGRLEGKVYKDTTLYTTLSPCDMCTGAIIMYGIPRCVVGENVNFKSKGEKYLQTRGHEVVVVDDERCKKIMKQFIDERPQDWFEDIGEGSSHHHHHH
- binding result [4]: binds

B14: GE11-CD-H (other)
antigen binding fragment-CD fusion: MYHWYGYTPQNVIGGGGSGGGGSGGGGSVTGGMASKWDQKGMDIAYEEAALGYKEGGVPIGGCLINNKDGSVLGRGHNMRFQKGSATLHGEISTLENCGRLEGKVYKDTTLYTTLSPCDMCTGAIIMYGIPRCVVGENVNFKSKGEKYLQTRGHEVVVVDDERCKKIMKQFIDERPQDWFEDIGEGSSHHHHHH
- binding result [4]: no binding

B15: 4VGR38-CD-H (VHH)
VHH: QVQLQESGGGSVQAGGSLTLSCEVSGYSVNSNSMGWFRQAPGKEREGVAGINEGGVSTYYANFVQGRFTISQDNAKNMVYLQMNSLKPEDTAIYYCAAGAPDPPPLIESIVKYWGQGTQVTVSS
notes: as for B1
- binding result [5]: binds
